Measured values as given in publication PMC7464098, “Conformational Equilibrium of NADPH–Cytochrome P450 Oxidoreductase Is Essential for Heme Oxygenase Reaction” (Antioxidants, 2020).

Columns and labels:
Conditions in all cases: both partners purified
[1] = target: rat CPR mutant with a disulfide bridge Cys147–Cys514 (closed-form stabilized CPR) (rat, UniProt P00388 58-678, Asp147 substituted with cysteine | Arg514 substituted with cysteine | Cys136Ala …, disulfide bond between Cys147 and Cys514); experiment: AUC; sedimentation equilibrium, equimolar mixtures (15 μM each for 147CC514; concentrations for rCPR and IAM/DTT-treated 147CC514 not told), 25 °C, 0.1 M potassium phosphate pH 7.4, 15,000 rpm, absorbance at 455 nm; apparent affinity
[2] = target: T1, rat NADPH–cytochrome P450 oxidoreductase (soluble form) (rat, UniProt P00388 58-678); experiment: as above
T1 construct: Holds FAD and FMN; The limit Met1-Ile57 is printed in the sentence on the 147CC514 cDNA; also called rCPR; CPR; source: E. coli, purified
T1 sequence (looked up): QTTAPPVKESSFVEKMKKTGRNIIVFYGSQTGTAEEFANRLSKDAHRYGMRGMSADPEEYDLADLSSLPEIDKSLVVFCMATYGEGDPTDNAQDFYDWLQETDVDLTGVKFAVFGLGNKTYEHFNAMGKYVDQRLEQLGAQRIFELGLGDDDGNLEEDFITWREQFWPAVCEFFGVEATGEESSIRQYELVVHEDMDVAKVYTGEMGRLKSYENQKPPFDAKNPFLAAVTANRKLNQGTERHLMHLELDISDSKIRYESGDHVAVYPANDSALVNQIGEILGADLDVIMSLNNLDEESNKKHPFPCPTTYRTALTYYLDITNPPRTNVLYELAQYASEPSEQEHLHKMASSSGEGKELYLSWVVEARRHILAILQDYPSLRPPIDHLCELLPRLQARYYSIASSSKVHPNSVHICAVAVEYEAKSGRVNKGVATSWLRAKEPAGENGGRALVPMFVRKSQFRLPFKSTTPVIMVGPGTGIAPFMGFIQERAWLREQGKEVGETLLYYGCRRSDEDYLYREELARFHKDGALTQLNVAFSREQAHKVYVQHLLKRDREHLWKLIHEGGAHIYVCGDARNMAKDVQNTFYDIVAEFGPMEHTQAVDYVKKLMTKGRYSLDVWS

[3] = target: IAM/DTT-treated 147CC514 (rat, UniProt P00388 58-678, Asp147 substituted with cysteine | Arg514 substituted with cysteine | Cys136Ala …, disulfide bond between Cys147 and Cys514 cleaved, both cysteine residues alkylated (2-iodoacetamide)); experiment: as above
[4] = target: T2, rat CPR mutant lacking Thr236 to Glu239 of the hinge (open-form stabilized CPR) (rat, UniProt P00388 58-678, ΔTGEE (from Thr236 to Glu239 removed)); experiment: AUC; sedimentation equilibrium, 5 μM heme–rHO-1 plus 5 μM CPR sample, 25 °C, 0.1 M potassium phosphate pH 7.4, 15,000 rpm, absorbance at 455 nm; fit to HO-1 + CPR ⇄ HO-1•CPR
T2 construct: rat NADPH–cytochrome P450 reductase, soluble form without the membrane-spanning region (Met1-Ile57), four consecutive hinge residues Thr236 to Glu239 removed; Holds FAD and FMN; also called ΔTGEE; source: E. coli, purified
T2 sequence (looked up): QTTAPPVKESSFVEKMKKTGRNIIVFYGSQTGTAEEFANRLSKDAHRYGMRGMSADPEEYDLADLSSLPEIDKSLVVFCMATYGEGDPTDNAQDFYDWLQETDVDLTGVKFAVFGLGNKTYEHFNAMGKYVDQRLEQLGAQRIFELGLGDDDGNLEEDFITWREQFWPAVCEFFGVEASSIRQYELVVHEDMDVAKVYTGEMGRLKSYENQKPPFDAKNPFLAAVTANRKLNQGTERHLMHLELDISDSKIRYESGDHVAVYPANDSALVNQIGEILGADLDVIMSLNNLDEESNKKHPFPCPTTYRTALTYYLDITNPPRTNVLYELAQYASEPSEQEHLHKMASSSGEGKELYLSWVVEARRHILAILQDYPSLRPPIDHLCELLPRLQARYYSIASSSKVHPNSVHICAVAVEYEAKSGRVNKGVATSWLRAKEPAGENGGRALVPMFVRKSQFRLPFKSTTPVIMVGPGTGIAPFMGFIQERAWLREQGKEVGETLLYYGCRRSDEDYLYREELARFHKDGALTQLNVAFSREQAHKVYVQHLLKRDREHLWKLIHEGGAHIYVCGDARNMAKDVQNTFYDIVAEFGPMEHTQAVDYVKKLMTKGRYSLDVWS

- Kd [1]: 111 ± 5 µM
- Kd [2]: 62.1 ± 1.7 µM
- Kd [3]: 65.5 ± 17 µM
- Kd [4]: 0.178 ± 0.077 µM
B1: heme–rat heme oxygenase-1 complex (soluble form) (enzyme)
chain: MERPQLDSMSQDLSEALKEATKEVHIRAENSEFMRNFQKGQVSREGFKLVMASLYHIYTALEEEIERNKQNPVYAPLYFPEELHRRAALEQDMAFWYGPHWQEAIPYTPATQHYVKRLHEVGGTHPELLVAHAYTRYLGDLSGGQVLKKIAQKAMALPSSGEGLAFFTFPSIDNPTKFKQLYRARMNTLEMTPEVKHRVTEEAKTAFLLNIELFEELQALLTEEHKDQSPSQTEFLRQRPASLVQDTTSAETPRGKSQISTSSSQTP
notes: rat heme oxygenase-1 (HO-1), soluble form made by removing the membrane-spanning region; also called heme–rHO-1; heme–HO-1; source: E. coli, purified; reconstituted with 1.2 equiv. of heme, hydroxyapatite column
